# Laboratory results as given in paper PMC6358605 (2019).
# B1: Full-length mouse MANF (wild-type) (natural protein)
# chain: LRPGDCEVCISYLGRFYQDLKDRDVTFSPATIEEELIKFCREARGKENRLCYYIGATDDAATKIINEVSKPLAHHIPVEKICEKLKKKDSQICELKYDNQIDLSTVDLKKLRVKELKKILDDWGEMCKGCAEKSDYIRKINELMPKYAPKAASARTDL
# B2: biotinylated AviTag-BiP^19–413 (NBD) (domain or fragment)
# chain: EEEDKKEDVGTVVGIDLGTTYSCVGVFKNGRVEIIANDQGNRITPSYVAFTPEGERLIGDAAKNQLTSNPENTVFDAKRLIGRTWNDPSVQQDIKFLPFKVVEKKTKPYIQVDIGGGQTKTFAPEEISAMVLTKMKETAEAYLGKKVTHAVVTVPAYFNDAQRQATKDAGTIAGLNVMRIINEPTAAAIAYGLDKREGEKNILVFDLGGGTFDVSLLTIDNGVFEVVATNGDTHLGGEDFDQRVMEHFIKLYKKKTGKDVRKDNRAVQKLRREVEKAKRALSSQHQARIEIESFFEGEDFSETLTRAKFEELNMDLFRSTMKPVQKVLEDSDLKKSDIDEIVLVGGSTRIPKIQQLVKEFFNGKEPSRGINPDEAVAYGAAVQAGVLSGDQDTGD
# modifications: biotin (on the AviTag, by E. coli BirA)
# What was measured:
# [1] = biological target: B2; test: BLI; steady-state K1/2 max
# [2] = biological target: B1; test: BLI; K1/2 max, steady state
Kd [1] [µM],Kd [2] [µM],Binder
10.3,,TVDLKKLRVKELKKILDDWGEMCKGCAEKSDYIRKINELMPKYA (domain or fragment) [SAP domain (126-169)]
13.9,,B1
,16,B2
